# Source: patent EP0751225B1, “Process for the identification of proteolytic activities and/or inhibitors thereof” (TECNOGEN S.C.P.A., priority 1990, dated 1992)
# Target: T1, ET [16-29] (Homo sapiens, UniProt P05305)
# T1 construct: made in house; host or cells: chemical solid-phase peptide synthesis (Fmoc)
# Assay: Capacity of affinity chromatography columns prepared with the immobilized peptides (retention of injected ET [16-29])
# Type: binding
# Settings: 500 microlitres of ET [16-29] at 1 mg/ml injected; peptide immobilized on EUPERGIT C30 N; 0.1 M TRIS HCL pH 6.8, 1 ml/min
# Method: The peptides Δ ET [16-29] and 8 Δ ET [16-29] have immobilized on a support previously activated through the introduction of epoxide groups (EUPERGIT C30 N), employing the same peptide/support ratio. The peptides 8 Δ ET [16-29] (2 mg) and Δ ET [16-29] (2 mg) have been dissolved separately in 10 ml of 0.1 M […], 0.5 M NaCl, pH 8.5, and added separately to two aliquots of 1 g of EUPERGIT C30 N. The mixtures have been incubated for 24 hours under stirring at room temperature. The introduction of the peptides within the resin has been followed by means of RP-HPLC, and after 24 hours an amount of about 80 % of the peptide initially present in the two preparations turned out to be covalently linked to the support. Such incorporation percentage has been then confirmed by analysis of amino acids, which analysis were carried out on weighed amounts of the two derivatized resins.
# The two derivatized peptide supports were employed for filling two glass columns for affinity chromatography (80 x 6.6 mm I.D., total volume 2.3 ml) that were equilibrated with 0.1 M TRIS* HCL, at pH 6.8 and with a flowrate of 1 ml/min. The eluent was continuously monitored by means of optical absorption determinations at 280 nm wavelength. For determining the capacity of the columns, 500 microlitres of ET [16-29] dissolved at a concentration of 1 mg/ml in the elution buffer were injected. […]
sequence,measurement,value
RKFLAGLRARRLKF [Δ ET [16-29]],injected material retained by the column,50%
